Measurements from patent publication US20160002357A1 (Pfizer, published 2016).

What was measured:
[1] = target: T1, human P-cadherin expressed on the cell surface (human, UniProt P22223 108-829); assay: cell-based or functional assay
[2] = target: T2, cynomolgus monkey P-cadherin ECD (cynomolgus monkey); assay: SPR
T2 construct: extracellular domain; also called cyno P-cadherin ECD; Cyno P-cadherin

[3] = target: T1, human P-cadherin expressed on the cell …; assay: cell-based or functional assay; remark: listed apart in the source

T1 sequence (P22223 108-829): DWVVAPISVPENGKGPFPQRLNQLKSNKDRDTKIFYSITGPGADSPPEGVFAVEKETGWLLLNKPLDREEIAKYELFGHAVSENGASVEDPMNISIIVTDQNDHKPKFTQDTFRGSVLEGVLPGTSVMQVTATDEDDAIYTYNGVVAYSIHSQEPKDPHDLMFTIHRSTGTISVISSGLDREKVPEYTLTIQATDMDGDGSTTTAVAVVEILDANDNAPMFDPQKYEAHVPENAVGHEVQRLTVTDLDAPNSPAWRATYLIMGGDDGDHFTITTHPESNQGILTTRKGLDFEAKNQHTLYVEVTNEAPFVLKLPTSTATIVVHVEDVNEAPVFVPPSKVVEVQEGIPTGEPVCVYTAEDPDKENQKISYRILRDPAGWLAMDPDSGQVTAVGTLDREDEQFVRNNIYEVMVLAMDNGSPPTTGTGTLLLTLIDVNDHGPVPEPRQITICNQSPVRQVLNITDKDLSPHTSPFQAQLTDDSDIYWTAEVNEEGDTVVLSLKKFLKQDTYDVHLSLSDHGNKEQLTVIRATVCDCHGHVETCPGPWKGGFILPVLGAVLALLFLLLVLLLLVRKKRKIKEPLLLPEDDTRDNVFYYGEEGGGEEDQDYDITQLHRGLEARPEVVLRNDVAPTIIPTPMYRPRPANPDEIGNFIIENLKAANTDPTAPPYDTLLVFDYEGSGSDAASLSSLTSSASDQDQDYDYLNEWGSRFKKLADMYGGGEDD

| Binder | DU145 CTL (LDH) EC50 [1] | HCT116 CTL (Luc) EC50 [1] | Kd [2] | T cell Cytotoxicity [3] |
| --- | --- | --- | --- | --- |
| 35 LP-DART (bispecific antibody) chain 1: QSVLTQPPSVSAAPGQKVTISCSGSSSNIGNNYVSWYQQLPGTAPKLLIYDNNKRPSGIPDRFSGSKSGTSATLGITGLQTGDEADYYCGTWDSSLSAVVFGGGTKLTVLGGGSGGGGEVQLVESGGGLVQPGGSLRLSCAASGFTFSTYAMNWVRQAPGKGLEWVGRIRSKYNNYATYYADSVKGRFTISRDDSKNSLYLQMNSLKTEDTAVYYCVRHGNFGNSYVSWFAYWGQGTLVTVSSGCPPCPAPEAAGAPSVFLFPPKPKDTLMISRTPEVTCVVVDVSHEDPEVKFNWYVDGVEVHNAKTKPREEQYNSTYRVVSVLTVLHQDWLNGKEYKCKVSNKALPAPIEKTISKAKGQPREPQVCTLPPSREEMTKNQVSLWCLVKGFYPSDIAVEWESNGQPENNYKTTPPVLDSDGSFFLYSKLTVDKSRWQQGNVFSCSVMHEALHNHYTQKSLSLSPG chain 2: QAVVTQEPSLTVSPGGTVTLTCRSSTGAVTTSNYANWVQQKPGQAPRGLIGGTNKRAPWTPARFSGSLLGGKAALTITGAQAEDEADYYCALWYSNLWVFGGGTKLTVLGGGGSGGGGEVQLVQSGAEVKKPGASVKVSCKASGYTFTSYGISWVRQAPGQGLEWMGWISAYNGNTNYAQKLQGRVTMTTDTSTSTAYMELRSLRSDDTAVYYCATIDTASAFDIWGQGTMVTVSSGCPPCPAPEAAGAPSVFLFPPKPKDTLMISRTPEVTCVVVDVSHEDPEVKFNWYVDGVEVHNAKTKPREEQYNSTYRVVSVLTVLHQDWLNGKEYKCKVSNKALPAPIEKTISKAKGQPREPQVYTLPPCREEMTKNQVSLSCAVKGFYPSDIAVEWESNGQPENNYKTTPPVLDSDGSFFLVSKLTVDKSRWQQGNVFSCSVMHEALHNHYTQKSLSLSPG | 0.0073 nM | 0.107 nM | – | – |
| LP-DART #1 (bispecific antibody, also called P-cadherin LP-DART construct #1 (P-CAD 35, CD3-2)) chain 1: QAVVTQEPSLTVSPGGTVTLTCRSSTGAVTTSNYANWVQQKPGQAPRGLIGGTNKRAPWTPARFSGSLLGGKAALTITGAQAEDEADYYCALWYSNLWVFGGGTKLTVLGGGGSGGGGEVQLVQSGAEVKKPGASVKVSCKASGYTFTSYGISWVRQAPGQGLEWMGWISAYNGNTNYAQKLQGRVTMTTDTSTSTAYMELRSLRSDDTAVYYCATIDTASAFDIWGQGTMVTVSSGCPPCPAPEAAGAPSVFLFPPKPKDTLMISRTPEVTCVVVDVSHEDPEVKFNWYVDGVEVHNAKTKPREEQYNSTYRVVSVLTVLHQDWLNGKEYKCKVSNKALPAPIEKTISKAKGQPREPQVCTLPPSREEMTKNQVSLWCLVKGFYPSDIAVEWESNGQPENNYKTTPPVLDSDGSFFLYSKLTVDKSRWQQGNVFSCSVMHEALHNHYTQKSLSLSPG chain 2: QSVLTQPPSVSAAPGQKVTISCSGSSSNIGNNYVSWYQQLPGTAPKLLIYDNNKRPSGIPDRFSGSKSGTSATLGITGLQTGDEADYYCGTWDSSLSAVVFGGGTKLTVLGGGSGGGGEVQLVESGGGLVQPGGSLRLSCAASGFTFNTYAMNWVRQAPGKGLEWVARIRSKYNNYATYYADSVKDRFTISRDDSKNSLYLQMNSLKTEDTAVYYCVRHGNFGNSYVSWFAYWGQGTLVTVSSGCPPCPAPEAAGAPSVFLFPPKPKDTLMISRTPEVTCVVVDVSHEDPEVKFNWYVDGVEVHNAKTKPREEQYNSTYRVVSVLTVLHQDWLNGKEYKCKVSNKALPAPIEKTISKAKGQPREPQVYTLPPCREEMTKNQVSLSCAVKGFYPSDIAVEWESNGQPENNYKTTPPVLDSDGSFFLVSKLTVDKSRWQQGNVFSCSVMHEALHNHYTQKSLSLSPG | – | – | 108 nM | 0.79 nM |
| LP-DART #2 (bispecific antibody, also called P-cadherin LP-DART construct #2 (P-CAD 35, CD3-2)) chain 1: QAVVTQEPSLTVSPGGTVTLTCRSSTGAVTTSNYANWVQQKPGQAPRGLIGGTNKRAPWTPARFSGSLLGGKAALTITGAQAEDEADYYCALWYSNLWVFGGGTKLTVLGGGGSGGGGEVQLVQSGAEVKKPGASVKVSCKASGYTFTSYGISWVRQAPGQGLEWMGWISAYNGNTNYAQKLQGRVTMTTDTSTSTAYMELRSLRSDDTAVYYCATIDTASAFDIWGQGTMVTVSSGGTGGCPPCPAPEAAGAPSVFLFPPKPKDTLMISRTPEVTCVVVDVSHEDPEVKFNWYVDGVEVHNAKTKPREEQYNSTYRVVSVLTVLHQDWLNGKEYKCKVSNKALPAPIEKTISKAKGQPREPQVCTLPPSREEMTKNQVSLWCLVKGFYPSDIAVEWESNGQPENNYKTTPPVLDSDGSFFLYSKLTVDKSRWQQGNVFSCSVMHEALHNHYTQKSLSLSPG chain 2: QSVLTQPPSVSAAPGQKVTISCSGSSSNIGNNYVSWYQQLPGTAPKLLIYDNNKRPSGIPDRFSGSKSGTSATLGITGLQTGDEADYYCGTWDSSLSAVVFGGGTKLTVLGGGSGGGGEVQLVESGGGLVQPGGSLRLSCAASGFTFNTYAMNWVRQAPGKGLEWVARIRSKYNNYATYYADSVKDRFTISRDDSKNSLYLQMNSLKTEDTAVYYCVRHGNFGNSYVSWFAYWGQGTLVTVSSGGTGGCPPCPAPEAAGAPSVFLFPPKPKDTLMISRTPEVTCVVVDVSHEDPEVKFNWYVDGVEVHNAKTKPREEQYNSTYRVVSVLTVLHQDWLNGKEYKCKVSNKALPAPIEKTISKAKGQPREPQVYTLPPCREEMTKNQVSLSCAVKGFYPSDIAVEWESNGQPENNYKTTPPVLDSDGSFFLVSKLTVDKSRWQQGNVFSCSVMHEALHNHYTQKSLSLSPG | – | – | 73.5 nM | 0.92 nM |
| LP-DART #3 (bispecific antibody, also called P-cadherin LP-DART construct #3 (P-CAD 35, CD3-2)) chain 1: QAVVTQEPSLTVSPGGTVTLTCRSSTGAVTTSNYANWVQQKPGQAPRGLIGGTNKRAPWTPARFSGSLLGGKAALTITGAQAEDEADYYCALWYSNLWVFGGGTKLTVLGGGGSGGGGEVQLVQSGAEVKKPGASVKVSCKASGYTFTSYGISWVRQAPGQGLEWMGWISAYNGNTNYAQKLQGRVTMTTDTSTSTAYMELRSLRSDDTAVYYCATIDTASAFDIWGQGTMVTVSSGEPKSSDKTHTCPPCPAPEAAGAPSVFLFPPKPKDTLMISRTPEVTCVVVDVSHEDPEVKFNWYVDGVEVHNAKTKPREEQYNSTYRVVSVLTVLHQDWLNGKEYKCKVSNKALPAPIEKTISKAKGQPREPQVCTLPPSREEMTKNQVSLWCLVKGFYPSDIAVEWESNGQPENNYKTTPPVLDSDGSFFLYSKLTVDKSRWQQGNVFSCSVMHEALHNHYTQKSLSLSPG chain 2: QSVLTQPPSVSAAPGQKVTISCSGSSSNIGNNYVSWYQQLPGTAPKLLIYDNNKRPSGIPDRFSGSKSGTSATLGITGLQTGDEADYYCGTWDSSLSAVVFGGGTKLTVLGGGSGGGGEVQLVESGGGLVQPGGSLRLSCAASGFTFNTYAMNWVRQAPGKGLEWVARIRSKYNNYATYYADSVKDRFTISRDDSKNSLYLQMNSLKTEDTAVYYCVRHGNFGNSYVSWFAYWGQGTLVTVSSGEPKSSDKTHTCPPCPAPEAAGAPSVFLFPPKPKDTLMISRTPEVTCVVVDVSHEDPEVKFNWYVDGVEVHNAKTKPREEQYNSTYRVVSVLTVLHQDWLNGKEYKCKVSNKALPAPIEKTISKAKGQPREPQVYTLPPCREEMTKNQVSLSCAVKGFYPSDIAVEWESNGQPENNYKTTPPVLDSDGSFFLVSKLTVDKSRWQQGNVFSCSVMHEALHNHYTQKSLSLSPG | – | – | 85.7 nM | 1.6 nM |
